First the molecules themselves.
B1: F113V (protein)
chain: MQLRNPELHLGCALALRFLALVSWDIPGARALDNGLARTPTMGWLHWERFMCNLDCQEEPDSCISEKLFMEMAELMVSEGWKDAGYEYLCIDDCWMAPQRDSEGRLQADPQRVPHGIRQLANYVHSKGLKLGIYADVGNKTCAGFPGSFGYYDIDAQTFADWGVDLLKFDGCYCDSLENLADGYKHMSLALNRTGRSIVYSCEWPLYMWPFQKPNYTEIRQYCNHWRNFADIDDSWKSIKSILDWTSFNQERIVDVAGPGGWNDPDMLVIGNFGLSWNQQVTQMALWAIMAAPLFMSNDLRHISPQAKALLQDKDVIAINQDPLGKQGYQLRQGDNFEVWERPLSGLAWAVAMINRQEIGGPRSYTIAVASLGKGVACNPACFITQLLPVKRKLGFYEWTSRLRSHINPTGTVLLQLENTMQMSLKDLL
B2: H115D (protein)
chain: B1 chain with V113F, H115D
B3: H115N (protein)
chain: B1 chain with V113F, H115N
B4: I117M (protein)
chain: B1 chain with V113F, I117M
B5: P114L (protein)
chain: B1 chain with V113F, P114L
B6: G116R (protein)
chain: B1 chain with V113F, G116R
B7: F113Y (protein)
chain: B1 chain with V113Y

Residue numbers refer to the chain shown, from its start. Names may count otherwise.

The first experiment relates to mutant form of α-Gal A expressed in HEK-293 cells. Put plainly: HEK assay (GLP HEK / Migalastat Amenability Assay): α-Gal A activity in lysates of transiently transfected HEK-293 cells incubated with or without 10 μM migalastat. Type of experiment: cell-based, human. The settings on record: 10 μM migalastat versus baseline. The procedure:
Such mutations or variants are also referred to herein as “HEK assay amenable” mutations or variants.
The α-Gal A activity is expressed as the nmoles of free 4-MU released per milligram of protein per hour (nmol/mg/hr).
In Table 7, values for the mean±standard error of the mean (SEM) were calculated. nmol/mg/hr indicates “nmoles of free 4-MU released per mg of protein per hour”. WT indicates “wild-type”. NC indicates “not calculable”. N/A indicates “not applicable”.
For the molecule B1, the “Absolute increase (% WT)” value is listed as 9.2 % WT.

Turning to B2, the “Absolute increase (% WT)” value stood at 14.1 % WT.

With B3, the “Absolute increase (% WT)” value is recorded as 30.1 % WT.

For the molecule B4, the “Absolute increase (% WT)” value was found to be 29.4 % WT.

Consider B5, for which the “Absolute increase (% WT)” value worked out at 5.4 % WT.

B6: the “Absolute increase (% WT)” value is listed as 9.9 % WT.

For the molecule B7, the “Absolute increase (% WT)” value was determined as 4.4 % WT.

Staying with this experiment, now noted: 10 μM migalastat α-Gal A activity relative to baseline.
B1 yielded a Relative increase of 10.6.

In turn, B2 showed a Relative increase of 1.5.

For the molecule B3, the Relative increase is given as 1.7.

As for B4, the Relative increase is reported as 1.6.

On to B5, for which the Relative increase worked out at 1.3.

As for B6, the Relative increase came out at 2.7.

The same experiment, now with this note: 10 μM migalastat, 5 days; percentage of baseline wild-type α-Gal A activity; mean ± SEM.
Turning to B1, the “10 μM migalastat α-Gal A activity (% WT)” value worked out at 10.3 ± 1 % WT.

Turning to B2, the “10 μM migalastat α-Gal A activity (% WT)” value is on record as 44.8 ± 3 % WT.

For the molecule B3, the “10 μM migalastat α-Gal A activity (% WT)” value came out at 75 ± 2.5 % WT.

Regarding B4, the “10 μM migalastat α-Gal A activity (% WT)” value is reported as 83.5 ± 3.6 % WT.

On to B5, for which the “10 μM migalastat α-Gal A activity (% WT)” value came out at 23.7 ± 1.3 % WT.

B6: the “10 μM migalastat α-Gal A activity (% WT)” value was 15.4 ± 1.5 % WT.

As to B7, the “10 μM migalastat α-Gal A activity (% WT)” value is listed as 4.4 ± 0.3 % WT.

Still in this experiment, the particulars now being: absence of migalastat; mean activity below the limit of detection (<142 nmol/mg/hr).
Consider B7, for which the “Baseline α-Gal A activity (nmol/mg/hr)” value is listed as “BLD (“BLD” indicates that the mean α-Gal A activity was below the limit of detection (<142 nmol/mg/hr))”.

Still in this experiment, the particulars now being: absence of migalastat; percentage of baseline wild-type α-Gal A activity; mean ± SEM.
B1: the “Baseline α-Gal A activity (% WT)” value is recorded as 1.1 ± 0.1 % WT.

As to B2, the “Baseline α-Gal A activity (% WT)” value was 30.7 ± 2.9 % WT.

On to B3, for which the “Baseline α-Gal A activity (% WT)” value came to 44.9 ± 2.5 % WT.

Regarding B4, the “Baseline α-Gal A activity (% WT)” value turned out to be 54.2 ± 3.9 % WT.

For the molecule B5, the “Baseline α-Gal A activity (% WT)” value is 18.3 ± 2.1 % WT.

With B6, the “Baseline α-Gal A activity (% WT)” value is 5.4 ± 0.3 % WT.

The same experiment, now with this note: lysates of HEK-293 cells transfected with the mutant form, incubated 5 days in the absence of migalastat; mean ± SEM.
As to B1, the “Baseline α-Gal A activity” value was 341 ± 41 nmol/mg/h.

Take B2: the “Baseline α-Gal A activity” value came to 10284 ± 1141 nmol/mg/h.

Take B3: the “Baseline α-Gal A activity” value turned out to be 13745 ± 890 nmol/mg/h.

With B4, the “Baseline α-Gal A activity” value was 20226 ± 1373 nmol/mg/h.

Turning to B5, the “Baseline α-Gal A activity” value stood at 6229 ± 901 nmol/mg/h.

For the molecule B6, the “Baseline α-Gal A activity” value was 1922 ± 143 nmol/mg/h.

Staying with this experiment, now noted: lysates of HEK-293 cells transfected with the mutant form, incubated 5 days with 10 μM migalastat; mean ± SEM.
In the case of B1, the “10 μM migalastat α-Gal A activity” value was determined as 3614 ± 596 nmol/mg/h.

For the molecule B2, the “10 μM migalastat α-Gal A activity” value was 15258 ± 1412 nmol/mg/h.

Take B3: the “10 μM migalastat α-Gal A activity” value was determined as 23018 ± 1098 nmol/mg/h.

On to B4, for which the “10 μM migalastat α-Gal A activity” value amounted to 31280 ± 1153 nmol/mg/h.

With B5, the “10 μM migalastat α-Gal A activity” value was 7973 ± 626 nmol/mg/h.

Turning to B6, the “10 μM migalastat α-Gal A activity” value is 5251 ± 464 nmol/mg/h.

On to B7, for which the “10 μM migalastat α-Gal A activity” value came out at 1328 ± 79 nmol/mg/h.
